Experimental data: patent publication US20090110632A1 (published 2009)

B1: N56A HMFG1 (antibody, human IgG1, kappa, V domains shown)
VH: QVQLVQSGAEVKKPGASVKVSCKASGYTFSAYWIEWVRQAPGKGLEWVGEILPGSANSRYNEKFKGRVTVTRDTSTNTAYMELSSLRSEDTAVYYCARSYDFAWFAYWGQGTLVTVSS
VL: DIQMTQSPSSLSASVGDRVTITCKSSQSLLYSSNQKIYLAWYQQKPGKAPKLLIYWASTRESGVPSRFSGSGSGTDFTFTISSLQPEDIATYYCQQYYRYPRTFGQGTKVEIKR
B2: N56G HMFG1 (antibody, human IgG1, kappa, V domains shown)
VH: QVQLVQSGAEVKKPGASVKVSCKASGYTFSAYWIEWVRQAPGKGLEWVGEILPGSGNSRYNEKFKGRVTVTRDTSTNTAYMELSSLRSEDTAVYYCARSYDFAWFAYWGQGTLVTVSS
VL: DIQMTQSPSSLSASVGDRVTITCKSSQSLLYSSNQKIYLAWYQQKPGKAPKLLIYWASTRESGVPSRFSGSGSGTDFTFTISSLQPEDIATYYCQQYYRYPRTFGQGTKVEIKR
notes: also called N56G mutant
B3: N56C HMFG1 (antibody, human IgG1, kappa, V domains shown)
VH: QVQLVQSGAEVKKPGASVKVSCKASGYTFSAYWIEWVRQAPGKGLEWVGEILPGSCNSRYNEKFKGRVTVTRDTSTNTAYMELSSLRSEDTAVYYCARSYDFAWFAYWGQGTLVTVSS
VL: DIQMTQSPSSLSASVGDRVTITCKSSQSLLYSSNQKIYLAWYQQKPGKAPKLLIYWASTRESGVPSRFSGSGSGTDFTFTISSLQPEDIATYYCQQYYRYPRTFGQGTKVEIKR

What follows are binders tested against T1, MUC1-GST fusion protein containing seven variable number tandem repeat (VNTR) region (UniProt P15941 166-305) (assay: ELISA, plate-coated MUC1-GST; EC50 against HMFG1 standard of the same assay).
T1 construct: domain: seven variable number tandem, repeat (VNTR) region; Produced by the applicant; coated on the ELISA plate at 1 ug/ml; also called MUC1 antigen; antigen; not shown: GST fusion partner
T1 sequence (P15941 126-265): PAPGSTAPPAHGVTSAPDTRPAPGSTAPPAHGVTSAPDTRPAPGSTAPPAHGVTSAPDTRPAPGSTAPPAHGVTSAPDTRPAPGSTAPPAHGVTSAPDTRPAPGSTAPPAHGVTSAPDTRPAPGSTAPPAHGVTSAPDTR
Description: 96-well plates (Nunc Maxisorp) were coated with 100 μl of MUC1 at 1 μg/ml in carbonate-bicarbonate buffer (Sigma C3041) overnight at 4° C. MUC1 antigen used here was produced by the applicant and is a MUC1-GST fusion protein containing seven variable number tandem, repeat (VNTR) region; VNTR is the antigen recognised by MUC1.
Plates were then washed with a wash solution of PBS (phosphate buffered saline), +0.05% Tween 20, and serial dilutions of HMFG1 samples (wildtype protein or mutant) in incubation buffer (200 ml of PBS +0.2 g BSA (bovine serum albumin)) applied to the wells and incubated at 37° C. for 1 hour.
Plates were again washed, and treated with detection antibody (1.0 μl HRP (horse radish peroxidase) anti-human IgG (BD Pharmingen, P# 555788, or Jackson P#209-035-056) +1 ml incubation buffer) at 37° C. for 30 min, washed with wash buffer, and developed with TMB (tetramethylbenzidine) reagent (100 μl TMB (Sigma, T8665) warmed to room temperature and 100 μl sulphuric acid was used to stop the reaction after approximately 6 minutes). The optical density of the plates was read at 450 nm on a Spectromax plate reader immediately after development.
In the case of B1, the “fold increased affinity compared to HMFG1 standard (from EC50)” value (from here on “fold increased affinity”) is reported as roughly 5 fold. In the case of B2, the “fold increased affinity” value is reported as roughly 10 fold. With B3 the “fold increased affinity” value was roughly 20 fold.
